{
  "source": "IntAct's records for PubMed 16888622",
  "parents": {"B1": {"name": "TATA-box-binding protein (Saccharomyces cerevisiae), P13393 (parent)", "chain": "MADEERLKEFKEANKIVFDPNTRQVWENQNRDGTKPATTFQSEEDIKRAAPESEKDTSATSGIVPTLQNIVATVTLGCRLDLKTVALHARNAEYNPKRFAAVIMRIREPKTTALIFASGKMVVTGAKSEDDSKLASRKYARIIQKIGFAAKFTDFKIQNIVGSCDVKFPIRLEGLAFSHGTFSSYEPELFPGLIYRMVKPKIVLLIFVSGKIVLTGAKQREEIYQAFEAIYPVLSEFRKM", "partner": "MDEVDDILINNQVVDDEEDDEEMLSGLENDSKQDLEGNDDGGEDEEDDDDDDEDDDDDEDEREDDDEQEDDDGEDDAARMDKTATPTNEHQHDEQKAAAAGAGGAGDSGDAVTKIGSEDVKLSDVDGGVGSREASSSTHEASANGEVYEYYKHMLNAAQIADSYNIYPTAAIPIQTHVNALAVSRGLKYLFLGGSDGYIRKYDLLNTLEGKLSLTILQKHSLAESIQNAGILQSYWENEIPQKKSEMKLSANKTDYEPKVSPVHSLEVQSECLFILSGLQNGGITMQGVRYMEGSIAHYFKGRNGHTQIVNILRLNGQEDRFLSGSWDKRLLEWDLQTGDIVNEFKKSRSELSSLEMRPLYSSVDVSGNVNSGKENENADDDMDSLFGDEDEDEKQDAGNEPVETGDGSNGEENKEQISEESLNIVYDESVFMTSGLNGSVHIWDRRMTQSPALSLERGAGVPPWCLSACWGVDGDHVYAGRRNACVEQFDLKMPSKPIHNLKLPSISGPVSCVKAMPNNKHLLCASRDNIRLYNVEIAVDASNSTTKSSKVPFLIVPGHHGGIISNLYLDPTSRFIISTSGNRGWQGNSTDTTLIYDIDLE"}},
  "data": [
    {"variants_of": "B1", "settings": "with spt8_yeast SPT8, P38915", "values": [
      {"variant": "MADEERLKEFKEANKIVFDPNTRQVWENQNRDGTKPATTFQSEEDIKRAAPESEKDTSATSGIVPTLQNIVATVTLGCRLDLKTVALHARNAEYNPKRFAAVIMRIREPKTTALIFASGKMVVTGAKSEDDSKLASRKYARIIQKIGFAAKFTDFKIQNIVGSCDVKFPIELEGLAFSHGTFSSYEPELFPGLIYRMVKPKIVLLIFVSGKIVLTGAKQREEIYQAFEAIYPVLSEFRKM", "note": "[R171E]", "effect of a mutation on the interaction": "disrupting interaction"}
    ]}
  ]
}
